In CN113698481A (SUZHOU CENTERGENE PHARMACEUTICALS CO LTD, dated 2021):

Target: T1, 人绒毛膜促性腺激素(HCG) (human, UniProt P0DN86 21-165)
T1 construct: Alpha/beta heterodimer coated on ELISA plates; The source of the HCG preparation is lost from the text (gap after 'HCG |'); also called HCG抗原
Assay: ELISA, HCG coated at 2 μg/ml, VHH detected with anti-6xHis-HRP, 4-parameter fit

T1 sequence (chain, as listed by the source, chain 1 of 2, other chains not shown): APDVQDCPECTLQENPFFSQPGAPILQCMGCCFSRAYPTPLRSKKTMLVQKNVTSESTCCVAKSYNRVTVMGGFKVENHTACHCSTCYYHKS

| Binder | EC50 [µg/mL] |
| --- | --- |
| SEQ ID NO 3 (VHH, Expressed in E. coli, nickel column purified; Only the CDRs are printed; also called 蛋白3) VHH: QVQVAESGGGLVQSGGSMNLSCTASGNLFSVDAMGWFRQAPGEEREAVAAIMWSGDSTYYANAVKGRFTISRDNAKNTVYLQMNSLKPEDTAVYYCAARLQEEGWWDYWGQGTQVTVSS | 0.0259 |
| SEQ ID NO 7 (VHH, Expressed in E. coli, nickel column purified; Only the CDRs are printed; also called 蛋白7) VHH: QVQLVESGGGLVQAGGSLRLSCVASGRTFSSYDMGWFRQAPGEEREAVAAINWSGGSTYYADSVKGRFTISSDNAKNTVYLQMNNLKPEDTAVYYCAARQVPGWWDYWGQGTQVTVSS | 0.014 |
| SEQ ID NO 5 (VHH, Expressed in E. coli, nickel column purified; Only the CDRs are printed; also called 蛋白5) VHH: QVQLVESGGGLAQAGGSLRLSCAASGRTASGYAMGWFRQAPGKEREAVAAIMWSGGSTYYADSVKGRFTISRDNAKNTVYLQMNSLKTEDTAVYYCAARTDGSGWWDYWGQGTQVTVSS | 0.00946 |

The remaining lines, values ahead:

| EC50 [µg/mL] | Binder |
| --- | --- |
| 0.00505 | SEQ ID NO 4 (VHH, Expressed in E. coli, nickel column purified; Only the CDRs are printed; also called 蛋白4) VHH: QVRLVESGGGLVQPGGSLRLSCTASGGTFDRYNVAWFRQAPGEEREAVASIMWSGDNTYYANSVKGRFTISRDNAKNTVYLQMNSLKPEDTAVYYCAARIQEQGWWDYWGQGTQVTVSS |
| 0.0138 | SEQ ID NO 6 (VHH, Expressed in E. coli, nickel column purified; Only the CDRs are printed; also called 蛋白6) VHH: QVQVVESGGGLVQPGGSLRLSCAASGRTVSSHAMGWFRQAPGEEREAVAAIMWSGDSTYYANAVKGRFTISRDNAKNTVYLQMNSLKPEDTAVYYCAARLQEEGWWDYWGQGTQVTVSS |
